In patent US20130165389A1 (AMUNIX OPERATING, published 2013) one finds EC50 and Kd data, which are given here for three molecules.

One assay addresses T1, human IL6R (human, UniProt P08887 20-358, limits assumed).
T1 construct: also called IL-6 receptor
T1 sequence (looked up): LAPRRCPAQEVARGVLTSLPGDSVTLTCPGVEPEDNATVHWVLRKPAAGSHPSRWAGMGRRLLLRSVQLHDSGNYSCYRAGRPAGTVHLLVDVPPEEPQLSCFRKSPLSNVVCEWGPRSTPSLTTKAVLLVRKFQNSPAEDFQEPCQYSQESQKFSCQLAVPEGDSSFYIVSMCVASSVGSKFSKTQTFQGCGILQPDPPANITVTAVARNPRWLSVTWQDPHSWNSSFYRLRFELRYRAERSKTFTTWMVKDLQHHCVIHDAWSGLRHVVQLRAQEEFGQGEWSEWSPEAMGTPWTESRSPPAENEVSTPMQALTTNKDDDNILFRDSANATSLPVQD
In words: ELISA, coated human IL6R, biotinylated anti-XTEN antibody and streptavidin-HRP. (In an ELISA, binding on a coated surface is turned into a signal by an enzyme label.)

A further assay addresses T2, human CD40-Fc fusion (human, UniProt P25942 21-193).
T2 construct: Coated at 100 ng/well; not shown: Fc part of the fusion
Nature of the assay: ELISA, dilution series of cleared lysate on coated human CD40-Fc; Kd from EC50 and an estimated 10 µM in the lysate.

T2 sequence (P25942 21-193 limits assumed): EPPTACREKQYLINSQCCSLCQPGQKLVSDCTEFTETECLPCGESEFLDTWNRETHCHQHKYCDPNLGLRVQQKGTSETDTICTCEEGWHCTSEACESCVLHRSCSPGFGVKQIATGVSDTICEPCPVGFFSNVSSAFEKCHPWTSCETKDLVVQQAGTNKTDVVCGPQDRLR
Procedure for human CD40-Fc fusion: This second flask was grown to an OD600 of between 0.6 and 1.0 at 37° C., transferred to 26° C., and induced with 1 mM IPTG. The induction was left overnight and cell paste harvested by centrifugation the flowing morning. […] Small samples were taken from the pellet, lysed using bugbuster, and clarified using a microcentrifuge. These cleared lysates were the serially diluted by a factor of three in PBST, for using in a binding ELISA.

B1: aIL6R scFv-AE864, AC342 (scFv)
scFv: MADIQMTQSPSSLSASVGDRVTITCRASQDISSYLNWYQQKPGKAPKLLIYYTSRLHSGVPSRFSGSGSGTDFTFTISSLQPEDIATYYCQQGNTLPYTFGQGTKVEIKTGSGEGSEGEGGGEGSEGEGSGEGGEGEGSGSQVQLQESGPGLVRPSQTLSLTCTVSGYSITSDHAWSWVRQPPGRGLEWIGYISYSGITTYNPSLKSRVTMLRDTSKNQFSLRLSSVTAADTAVYYCARSLARTTAMDYWGQGSLVTVSSGSPGSPAGSPTSTEEGTSESATPESGPGTSTEPSEGSAPGSPAGSPTSTEEGTSTEPSEGSAPGTSTEPSEGSAPGTSESATPESGPGSEPATSGSETPGSEPATSGSETPGSPAGSPTSTEEGTSESATPESGPGTSTEPSEGSAPGTSTEPSEGSAPGSPAGSPTSTEEGTSTEPSEGSAPGTSTEPSEGSAPGTSESATPESGPGTSTEPSEGSAPGTSESATPESGPGSEPATSGSETPGTSTEPSEGSAPGTSTEPSEGSAPGTSESATPESGPGTSESATPESGPGSPAGSPTSTEEGTSESATPESGPGSEPATSGSETPGTSESATPESGPGTSTEPSEGSAPGTSTEPSEGSAPGTSTEPSEGSAPGTSTEPSEGSAPGTSTEPSEGSAPGTSTEPSEGSAPGSPAGSPTSTEEGTSTEPSEGSAPGTSESATPESGPGSEPATSGSETPGTSESATPESGPGSEPATSGSETPGTSESATPESGPGTSTEPSEGSAPGTSESATPESGPGSPAGSPTSTEEGSPAGSPTSTEEGSPAGSPTSTEEGTSESATPESGPGTSTEPSEGSAPGTSESATPESGPGSEPATSGSETPGTSESATPESGPGSEPATSGSETPGTSESATPESGPGTSTEPSEGSAPGSPAGSPTSTEEGTSESATPESGPGSEPATSGSETPGTSESATPESGPGSPAGSPTSTEEGSPAGSPTSTEEGTSTEPSEGSAPGTSESATPESGPGTSESATPESGPGTSESATPESGPGSEPATSGSETPGSEPATSGSETPGSPAGSPTSTEEGTSTEPSEGSAPGTSTEPSEGSAPGSEPATSGSETPGTSESATPESGPGTSTEPSEGSAPG
notes: Single-chain scFv-XTEN fusion expressed in E. coli; also called aIL6R-XTEN
Take B1: the EC50 (as a rule, the midpoint of the concentration-response curve) with human IL6R was found to be 5 nM.

B2: anti-CD40-AE864, AC384 (scFv)
scFv: MAEIVLTQSPATLSLSPGERATLSCRASQSISDYLHWYQQKPGQAPRLLIYYASHSISGIPARFSGSGSGTDFTLTISSLEPEDFAVYYCQHGHSYPWTFGGGTKVEIKTGSGEGSEGEGGGEGSEGEGSGEGGEGEGSGTQVQLVQSGSELKKPGASVKVSCKASGYAFTTTGMQWVRQAPGQGLEWMGWINTHSGVPKYVEDFKGRFVFSLDTSVSTAYLQISSLKAEDTAVYYCARSGNGNYDLAYFKYWGQGTLVTVSSGGSPAGSPTSTEEGTSESATPESGPGTSTEPSEGSAPGSPAGSPTSTEEGTSTEPSEGSAPGTSTEPSEGSAPGTSESATPESGPGSEPATSGSETPGSEPATSGSETPGSPAGSPTSTEEGTSESATPESGPGTSTEPSEGSAPGTSTEPSEGSAPGSPAGSPTSTEEGTSTEPSEGSAPGTSTEPSEGSAPGTSESATPESGPGTSTEPSEGSAPGTSESATPESGPGSEPATSGSETPGTSTEPSEGSAPGTSTEPSEGSAPGTSESATPESGPGTSESATPESGPGSPAGSPTSTEEGTSESATPESGPGSEPATSGSETPGTSESATPESGPGTSTEPSEGSAPGTSTEPSEGSAPGTSTEPSEGSAPGTSTEPSEGSAPGTSTEPSEGSAPGTSTEPSEGSAPGSPAGSPTSTEEGTSTEPSEGSAPGTSESATPESGPGSEPATSGSETPGTSESATPESGPGSEPATSGSETPGTSESATPESGPGTSTEPSEGSAPGTSESATPESGPGSPAGSPTSTEEGSPAGSPTSTEEGSPAGSPTSTEEGTSESATPESGPGTSTEPSEGSAPGTSESATPESGPGSEPATSGSETPGTSESATPESGPGSEPATSGSETPGTSESATPESGPGTSTEPSEGSAPGSPAGSPTSTEEGTSESATPESGPGSEPATSGSETPGTSESATPESGPGSPAGSPTSTEEGSPAGSPTSTEEGTSTEPSEGSAPGTSESATPESGPGTSESATPESGPGTSESATPESGPGSEPATSGSETPGSEPATSGSETPGSPAGSPTSTEEGTSTEPSEGSAPGTSTEPSEGSAPGSEPATSGSETPGTSESATPESGPGTSTEPSEGSAP
notes: Tested as cleared E. coli lysate, not purified; also called aCD40-XTEN; pBC0009
Consider B2, for which the Kd (as a rule, the concentration at which binding is half-saturated) with human CD40-Fc fusion was around 50 nM.

B3: anti-CD40-AE864, AC385 (scFv)
scFv: MAEIVLTQSPATLSLSPGERATLSCRASQSISDYLHWYQQKPGQAPRLLIYYASHSISGIPARFSGSGSGTDFTLTISSLEPEDFAVYYCQHGHSYPWTFGGGTKVEIKTGSGEGSEGEGGGEGSEGEGSGEGGEGEGSGTQVQLVQSGSELKKPGASVKVSCKASGYAFTTTGMQWVRQAPGQGLEWMGWINTHSGVPKYVEDFKGRFVFSLDTSVSTAYLQISSLKAEDTAVYYCARSGNGNYDLAYFKYWGQGTLVTVSSGGSPAGSPTSTEEGTSESATPESGPGTSTEPSEGSAPGSPAGSPTSTEEGTSTEPSEGSAPGTSTEPSEGSAPGTSESATPESGPGSEPATSGSETPGSEPATSGSETPGSPAGSPTSTEEGTSESATPESGPGTSTEPSEGSAPGTSTEPSEGSAPGSPAGSPTSTEEGTSTEPSEGSAPGTSTEPSEGSAPGTSESATPESGPGTSTEPSEGSAPGTSESATPESGPGSEPATSGSETPGTSTEPSEGSAPGTSTEPSEGSAPGTSESATPESGPGTSESATPESGPGSPAGSPTSTEEGTSESATPESGPGSEPATSGSETPGTSESATPESGPGTSTEPSEGSAPGTSTEPSEGSAPGTSTEPSEGSAPGTSTEPSEGSAPGTSTEPSEGSAPGTSTEPSEGSAPGSPAGSPTSTEEGTSTEPSEGSAPGTSESATPESGPGSEPATSGSETPGTSESATPESGPGSEPATSGSETPGTSESATPESGPGTSTEPSEGSAPGTSESATPESGPGSPAGSPTSTEEGSPAGSPTSTEEGSPAGSPTSTEEGTSESATPESGPGTSTEPSEGSAPGTSESATPESGPGSEPATSGSETPGTSESATPESGPGSEPATSGSETPGTSESATPESGPGTSTEPSEGSAPGSPAGSPTSTEEGTSESATPESGPGSEPATSGSETPGTSESATPESGPGSPAGSPTSTEEGSPAGSPTSTEEGTSTEPSEGSAPGTSESATPESGPGTSESATPESGPGTSESATPESGPGSEPATSGSETPGSEPATSGSETPGSPAGSPTSTEEGTSTEPSEGSAPGTSTEPSEGSAPGSEPATSGSETPGTSESATPESGPGTSTEPSEGSAP
notes: Tested as cleared E. coli lysate, not purified; also called aCD40-XTEN; pBC0010
On to B3, for which the Kd with human CD40-Fc fusion was around 50 nM.
